# From the supplement of paper PMC11246515
# ± gives the standard deviation of the averaged measurements.
# Experiment: total protein half-life in vivo (active degradation + dilution); higher = more stable protein
# [1] = E. coli NCM3722 delta-clpP delta-lon delta-hslV, growth: N-lim chemostat, doubling time 6 h
# [2] = E. coli NCM3722 delta-clpP, growth: N-lim chemostat, doubling time 6 h
# [3] = E. coli NCM3722 delta-hslV, growth: N-lim chemostat, doubling time 6 h
# [4] = E. coli NCM3722 delta-lon, growth: N-lim chemostat, doubling time 6 h
# [5] = E. coli NCM3722 delta-smpB, growth: N-lim chemostat, doubling time 6 h
# [6] = wild type E. coli NCM3722, growth: C-lim chemostat, doubling time 3 h
# [7] = wild type E. coli NCM3722, growth: C-lim chemostat, doubling time 6 h
# [8] = wild type E. coli NCM3722, growth: C-lim chemostat, doubling time 12 h
# [9] = wild type E. coli NCM3722, growth: N-lim chemostat, doubling time 6 h
# [10] = wild type E. coli NCM3722, growth: N-lim chemostat, doubling time 12 h
# [11] = wild type E. coli NCM3722, growth: P-lim chemostat, doubling time 6 h
# [12] = wild type E. coli NCM3722, growth: P-lim chemostat, doubling time 12 h
Sequence,total protein half-life in vivo [1] [h],total protein half-life in vivo [2] [h],total protein half-life in vivo [3] [h],total protein half-life in vivo [4] [h],total protein half-life in vivo [5] [h],total protein half-life in vivo [6] [h],total protein half-life in vivo [7] [h],total protein half-life in vivo [8] [h],total protein half-life in vivo [9] [h],total protein half-life in vivo [10] [h],total protein half-life in vivo [11] [h],total protein half-life in vivo [12] [h]
MDSLNLNKHISGQFNAELESIRTQVMTMGGMVEQQLSDAITAMHNQDSDLAKRVIEGDKNVNMMEVAIDEACVRIIAKRQPTASDLRLVMVISKTIAELERIGDVADKICRTALEKFSQQHQPLLVSLESLGRHTIQMLHDVLDAFARMDIDEAVRIYREDKKVDQEYEGIVRQLMTYMMEDSRTIPSVLTALFCARSIERIGDRCQNICEFIFYYVKGQDFRHVGGDELDKLLAGKDSDK [P0A9K7],4.61 ± 0.4,4.64 ± 0.5,4.2 ± 0.34,4.81 ± 0.26,4.01 ± 0.1,2.88 ± 0.12,5.04 ± 0.29,9.47 ± 0.65,4.09 ± 0.23,6.41 ± 0.26,5.17 ± 0.13,10.8 ± 0.029
MISDSKLLASAAWDAQSLNELKAKAGEDPAANIRPVARQVEGMFVQMMLKSMRDALPKDGLFSSEHTRLYTSMYDQQIAQQMTAGKGLGLAEMMVKQMTPEQPLPEESTPAAPMKFPLETVVRYQNQALSQLVQKAVPRNYDDSLPGDSKAFLAQLSLPAQLASQQSGVPHHLILAQAALESGWGQRQIRRENGEPSYNLFGVKASGNWKGPVTEITTTEYENGEAKKVKAKFRVYSSYLEALSDYVGLLTRNPRYAAVTTAASAEQGAQALQDAGYATDPHYARKLTNMIQQMKSISDKVSKTYSMNIDNLF,–,–,–,–,–,0.391,–,–,–,–,–,–
MALPRITQKEMTEREQRELKTLLDRARIAHGRVLTNSETNSIKKDYIDKLMVEREAEAKKARQLKKKQAYKPDPEASFSWSANTSTRGRR,5.58 ± 1,–,1.79 ± 0.25,1.63,2.02,–,1.65,2.08,–,2.87 ± 0.66,–,–
MSFELPALPYAKDALAPHISAETIEYHYGKHHQTYVTNLNNLIKGTAFEGKSLEEIIRSSEGGVFNNAAQVWNHTFYWNCLAPNAGGEPTGKVAEAIAASFGSFADFKAQFTDAAIKNFGSGWTWLVKNSDGKLAIVSTSNAGTPLTTDATPLLTVDVWEHAYYIDYRNARPGYLEHFWALVNWEFVAKNLAA [P0AGD3],5.3 ± 0.47,5.56 ± 1.2,4.773 ± 0.02,6.2 ± 1.1,4.8 ± 0.58,3.18 ± 0.084,5.96 ± 0.084,11.6 ± 0.35,5.07 ± 0.39,9.76 ± 0.58,5.95 ± 0.27,12 ± 0.36
MNNSRLFRLSRIVIALTAASGMMVNTANAKEEAKAATQYTQQVNQNYAKSLPFSDRQDFDDAQRGFIAPLLDEGILRDANGKVYYRADDYKFDINAAAPETVNPSLWRQSQINGISGLFKVTDKMYQVRGQDISNITFVEGEKGIIVIDPLVTPPAAKAALDLYFQHRPQKPIVAVIYTHSHTDHYGGVKGIISEADVKSGKVQVIAPAGFMDEAISENVLAGNIMSRRALYSYGLLLPHNAQGNVGNGLGVTLATGDPSIIAPTKTIVRTGEKMIIDGLEFDFLMTPGSEAPAEMHFYIPALKALCTAENATHTLHNFYTLRGAKTRDTSKWTEYLNETLDMWGNDAEVLFMPHTWPVWGNKHINDYIGKYRDTIKYIHDQTLHLANQGYTMNEIGDMIKLPPALANNWASRGYYGSVSHNARAVYNFYLGYYDGNPANLHPYGQVEMGKRYVQALGGSARVINLAQEANKQGDYRWSAELLKQVIAANPGDQVAKNLQANNFEQLGYQAESATWRGFYLTGAKELREGVHKFSHGTTGSPDTIRGMSVEMLFDFMAVRLDSAKAAGKNISLNFNMSNGDNLNLTLNDSVLNYRKTLQPQADASFYISREDLHAVLTGQAKMADLVKAKKAKIIGNGAKLEEIIACLDNFDLWVNIVTPN,–,–,–,–,–,–,–,11.5,–,11.3,–,–
MAQFYSAKRRTTTRQIITVSVNDLDSFGQGVARHNGKTLFIPGLLPQENAEVTVTEDKKQYARAKVVRRLSDSPERETPRCPHFGVCGGCQQQHASVDLQQRSKSAALARLMKHDVSEVIADVPWGYRRRARLSLNYLPKTQQLQMGFRKAGSSDIVDVKQCPILAPQLEALLPKVRACLGSLQAMRHLGHVELVQATSGTLMILRHTAPLSSADREKLERFSHSEGLDLYLAPDSEILETVSGEMPWYDSNGLRLTFSPRDFIQVNAGVNQKMVARALEWLDVQPEDRVLDLFCGMGNFTLPLATQAASVVGVEGVPALVEKGQQNARLNGLQNVTFYHENLEEDVTKQPWAKNGFDKVLLDPARAGAAGVMQQIIKLEPIRIVYVSCNPATLARDSEALLKAGYTIARLAMLDMFPHTGHLESMVLFSRVK,5.4 ± 0.1,5.11 ± 0.95,4.34 ± 0.43,4.54 ± 0.058,3.9767 ± 0.00076,2.96 ± 0.12,5.12 ± 0.17,9.07 ± 0.16,4.203 ± 0.032,6.93 ± 0.14,4.49 ± 1,10.7 ± 2.4
